# Experimental data taken from patent US5908790A, “Methods for removing heavy metals from aqueous solutions and for analysis” (Behring Diagnostics GmbH, priority 1990, dated 1999).
# B1: mAB 2050/535: particularly suitable anti-EDTA/DTPA monoclonal antibody; VL and VH sequences in SEQ ID NO:1-4 (antibody, V domains shown)
# VH: LQQSGAELVKPGASVKLSCTSGLNIKDTYINWVKQRPEQGLEWIGRIGPANGNTKYDPKFQGKATLTADTSSNTAYLQLSSLTSEDTAVYYCSRRWFFLYWGQGTTVT
# VL: QLTQESALTTSPGETVTLTCRSSTGAVTTSNYATWVQEKPDHLFTGLIGGTKNRAPGVPARFSGSLIGDKAALTITGAQTEDEAIYFCALWYSNHWVFGGGTKLKI
# Tests used:
# Type in all cases: binding
# EDTA-Mn = experiment: Quantitative inhibition ELISA of mAB, competitor EDTA-Mn; settings: solid phase Y benzyl-DTPA-HSA conjugate
# Experimental: (§1) The ELISA comprised a solid phase which was loaded with a solution containing human serum albumin (HSA)-benzyl-DTPA. The supernatant which was to be tested and contained the mAB was preincubated with free complexone or the metal ion complex thereof, and its binding to the specific solid phase was measured. For this purpose, an enzyme amplification system which is coupled to an anti-mouse-immunoglobulin antibody was used. The details of this method are described in Examples 2 and 3.
# (§2) The complexones DTPA and EDTA in noncomplexed and in complexed form (Example 4) were used as competitors. Additionally, the structurally related compounds transaconitic acid and 1,2-diaminoethane were used as inhibitors (see Tab. I). The excess amounts of competitor presented in Tab. […] These characteristics make it possible to use the mAB, e.g. coupled on filters or other solid supports, for removing both noncomplexed EDTA or DTPA and EDTA-metal ion or DTPA-metal ion complexes from liquids. Precipitation reactions of mAB-/EDTA-metal ion complexes are likewise suitable for removing the toxic metal ions.
# (§3) Divisible 96-well polystyrene microtiter plates (U-shape) type B. supplied by Nunc, No. 4-60445 were employed as support material. The assay was carried out according to the following protocol. […]
# (§4) (15) The extinctions are measured at 492 nm in the TITERTEK^R MULTISCAN. […]
# EDTA-Y = experiment: Quantitative inhibition ELISA of mAB, competitor EDTA-Y; settings: solid phase Y benzyl-DTPA-HSA conjugate
# Experimental: as §1, §2, §3, §4
# [1] = Quantitative inhibition ELISA of mAB, competitor transaconitic acid; settings: competitor trans-aconitic acid; no inhibition up to the stated excess
# Experimental: as §1, §2, §3, §4
# EDTA-Zn = experiment: Quantitative inhibition ELISA of mAB, competitor EDTA-Zn; settings: solid phase Y benzyl-DTPA-HSA conjugate
# Experimental: as §1, §2, §3, §4
# EDTA-Pb = experiment: Quantitative inhibition ELISA of mAB, competitor EDTA-Pb; settings: solid phase Y benzyl-DTPA-HSA conjugate
# Experimental: as §1, §2, §3, §4
# [2] = Quantitative inhibition ELISA of mAB, competitor EDTA
# Experimental: as §1, §2, §3, §4
# EDTA-Cd = experiment: Quantitative inhibition ELISA of mAB, competitor EDTA-Cd; settings: solid phase Y benzyl-DTPA-HSA conjugate
# Experimental: as §1, §2, §3, §4
# DTPA-Cu = experiment: Quantitative inhibition ELISA of mAB, competitor DTPA-Cu; settings: solid phase Y benzyl-DTPA-HSA conjugate
# Experimental: as §1, §2, §3, §4
# DTPA-Mn = experiment: Quantitative inhibition ELISA of mAB, competitor DTPA-Mn; settings: solid phase Y benzyl-DTPA-HSA conjugate
# Experimental: as §1, §2, §3, §4
# [3] = Quantitative inhibition ELISA of mAB, competitor 1,2-diaminoethane; settings: no inhibition up to the stated excess
# Experimental: as §1, §2, §3, §4
# DTPA-Zn = experiment: Quantitative inhibition ELISA of mAB, competitor DTPA-Zn; settings: solid phase Y benzyl-DTPA-HSA conjugate
# Experimental: as §1, §2, §3, §4
# EDTA-Cu = experiment: Quantitative inhibition ELISA of mAB, competitor EDTA-Cu; settings: solid phase Y benzyl-DTPA-HSA conjugate
# Experimental: as §1, §2, §3, §4
# DTPA-Cd = experiment: Quantitative inhibition ELISA of mAB, competitor DTPA-Cd; settings: solid phase Y benzyl-DTPA-HSA conjugate
# Experimental: as §1, §2, §3, §4
# DTPA-Y = experiment: Quantitative inhibition ELISA of mAB, competitor DTPA-Y; settings: solid phase Y benzyl-DTPA-HSA conjugate
# Experimental: as §1, §2, §3, §4
# DTPA-Pb = experiment: Quantitative inhibition ELISA of mAB, competitor DTPA-Pb; settings: solid phase Y benzyl-DTPA-HSA conjugate
# Experimental: as §1, §2, §3, §4
# [4] = Quantitative inhibition ELISA of mAB, competitor DTPA; settings: competitor DTPA (noncomplexed); solid phase Y benzyl-DTPA-HSA conjugate
# Experimental: as §1, §2, §3, §4
molecule,measurement,setting,value
B1,"Molar excess of competitor, which leads to 50% inhibition of binding to the solid phase antigen",EDTA-Mn,10^2
same,"Molar excess of competitor, which leads to 50% inhibition of binding to the solid phase antigen",EDTA-Y,10^2
same,"Molar excess of competitor, which leads to 50% inhibition of binding to the solid phase antigen",[1],> 10^5
same,"Molar excess of competitor, which leads to 50% inhibition of binding to the solid phase antigen",EDTA-Zn,10^2
same,"Molar excess of competitor, which leads to 50% inhibition of binding to the solid phase antigen",EDTA-Pb,10^2
same,"Molar excess of competitor, which leads to 50% inhibition of binding to the solid phase antigen","[2]; competitor EDTA (noncomplexed), solid phase Y benzyl-DTPA-HSA conjugate",10^2
same,interaction with EDTA and the complexes thereof,"[2]; statement in words, EDTA and its metal complexes",particularly strong
same,"Molar excess of competitor, which leads to 50% inhibition of binding to the solid phase antigen",EDTA-Cd,10^2
same,"Molar excess of competitor, which leads to 50% inhibition of binding to the solid phase antigen",DTPA-Cu,10^3
same,"Molar excess of competitor, which leads to 50% inhibition of binding to the solid phase antigen",DTPA-Mn,10^2
same,"Molar excess of competitor, which leads to 50% inhibition of binding to the solid phase antigen",[3],> 10^5
same,"Molar excess of competitor, which leads to 50% inhibition of binding to the solid phase antigen",DTPA-Zn,10^3
same,"Molar excess of competitor, which leads to 50% inhibition of binding to the solid phase antigen",EDTA-Cu,10^2
same,"Molar excess of competitor, which leads to 50% inhibition of binding to the solid phase antigen",DTPA-Cd,10^2
same,"Molar excess of competitor, which leads to 50% inhibition of binding to the solid phase antigen",DTPA-Y,10^4
same,"Molar excess of competitor, which leads to 50% inhibition of binding to the solid phase antigen",DTPA-Pb,10^3
same,"Molar excess of competitor, which leads to 50% inhibition of binding to the solid phase antigen",[4],10^2
